pKd: −log10 of the molar value.
Columns and labels:
HLA-B*57:01 = test: IEDB peptide-MHC binding, purified MHC/direct/fluorescence; filed as Kd, often an IC50 or EC50 that approximates it; ≥ and ≤ were set here for values at or beyond the usual limits of such assays
HLA-A*02:12 = test: as above
HLA-B*18:01 = test: as above
HLA-A*03:01 = test: as above
HLA-B*39:01 [1] = test: as above
HLA-A*02:03 = test: as above
HLA-A*26:01 = test: as above
HLA-B*27:03 = test: as above
HLA-B*46:01 = test: as above
HLA-A*24:03 = test: as above
HLA-B*51:01 = test: as above
HLA-A*02:11 = test: as above
HLA-B*15:01 = test: as above
HLA-A*02:19 = test: as above
HLA-C*12:03 = test: as above; settings: source organism: Vaccinia virus
HLA-C*07:02 = test: as above; settings: source organism: Vaccinia virus
HLA-A*02:01 [2] = test: IEDB peptide-MHC binding, purified MHC/competitive/fluorescence; filed as Kd, often an IC50 or EC50 that approximates it; ≥ and ≤ were set here for values at or beyond the usual limits of such assays; settings: source organism: Vaccinia virus
HLA-B*08:01 [3] = test: IEDB peptide-MHC binding, purified MHC/competitive/radioactivity; filed as Kd, often an IC50 or EC50 that approximates it; ≥ and ≤ were set here for values at or beyond the usual limits of such assays; settings: source organism: Vaccinia virus WR
HLA-B*27:05 = test: IEDB peptide-MHC binding, purified MHC/direct/fluorescence; filed as Kd, often an IC50 or EC50 that approximates it; ≥ and ≤ were set here for values at or beyond the usual limits of such assays
HLA-B*58:01 = test: as above
HLA-B*08:01 [4] = test: as above
HLA-A*01:01 = test: as above
HLA-A*30:01 = test: as above; settings: source organism: Pseudomonas putida
HLA-A*02:01 [5] = test: as above
HLA-B*40:01 = test: as above
HLA-A*69:01 = test: as above
HLA-A*11:01 = test: as above
HLA-B*07:02 = test: as above
HLA-B*73:01 = test: IEDB peptide-MHC binding, purified MHC/competitive/fluorescence; filed as Kd, often an IC50 or EC50 that approximates it; ≥ and ≤ were set here for values at or beyond the usual limits of such assays
HLA-B*15:17 [6] = test: IEDB peptide-MHC binding, purified MHC/direct/fluorescence; filed as Kd, often an IC50 or EC50 that approximates it; ≥ and ≤ were set here for values at or beyond the usual limits of such assays
HLA-A*68:02 [7] = test: as above
HLA-A*31:01 = test: as above
HLA-B*48:01 = test: as above
HLA-B*44:02 = test: as above
HLA-B*39:01 [8] = test: IEDB peptide-MHC binding, purified MHC/competitive/fluorescence; filed as Kd, often an IC50 or EC50 that approximates it; ≥ and ≤ were set here for values at or beyond the usual limits of such assays; settings: source organism: Brucella canis ATCC 23365
HLA-B*08:01 [9] = test: as above; settings: source organism: Brucella canis ATCC 23365
HLA-B*15:09 = test: as above
HLA-B*15:17 [10] = test: as above; settings: source organism: Coxiella burnetii RSA 331
HLA-A*68:02 [11] = test: as above; settings: source organism: Coxiella burnetii RSA 331
HLA-B*35:01 = test: as above; settings: source organism: Coxiella burnetii RSA 331
HLA-A*29:02 = test: IEDB peptide-MHC binding, purified MHC/direct/fluorescence; filed as Kd, often an IC50 or EC50 that approximates it; ≥ and ≤ were set here for values at or beyond the usual limits of such assays; settings: source organism: Vibrio vulnificus YJ016
HLA-A*02:16 = test: as above; settings: source organism: Vibrio vulnificus YJ016
[12] = source organism: Yersinia pestis CA88-4125
[13] = source organism: Pseudomonas putida
[14] = source organism: Brucella abortus 2308
[15] = source organism: Coxiella burnetii
[16] = source organism: Coxiella burnetii Q321
[17] = source organism: Vibrio vulnificus YJ016
[18] = source organism: Giardia lamblia ATCC 50803

LPEAYQWHI
pKd (HLA-B*57:01; [12]): ≤ 4.70 | pKd (HLA-A*02:12; [12]): ≤ 4.70 | pKd (HLA-B*18:01; [12]): ≤ 4.70 | pKd (HLA-A*03:01; [12]): ≤ 4.70 | pKd (HLA-B*39:01 [1]; [12]): ≤ 4.70 | pKd (HLA-A*02:03; [12]): ≤ 4.70 | pKd (HLA-A*26:01; [12]): ≤ 4.70 | pKd (HLA-B*27:03; [12]): ≤ 4.70 | pKd (HLA-B*46:01; [12]): ≤ 4.70 | pKd (HLA-A*24:03; [12]): ≤ 4.70 | pKd (HLA-B*51:01; [12]): 6.32 | pKd (HLA-A*02:11; [12]): ≤ 4.70 | pKd (HLA-B*15:01; [12]): ≤ 4.70 | pKd (HLA-A*02:19; [12]): ≤ 4.70

LLYAHINAL
pKd (HLA-C*12:03): 6.65 | pKd (HLA-C*07:02): 6.67 | pKd (HLA-A*02:01 [2]): 8.80 | pKd (HLA-B*08:01 [3]): 8.86

RVWRGEQGK
pKd (HLA-B*27:05; [13]): 5.12 | pKd (HLA-A*03:01; [13]): 6.61 | pKd (HLA-B*58:01; [13]): ≤ 4.70 | pKd (HLA-B*08:01 [4]; [13]): ≤ 4.70 | pKd (HLA-A*01:01; [13]): ≤ 4.70 | pKd (HLA-A*30:01): 7.35 | pKd (HLA-A*26:01; [13]): ≤ 4.70 | pKd (HLA-A*02:01 [5]; [13]): ≤ 4.70 | pKd (HLA-B*40:01; [13]): ≤ 4.70 | pKd (HLA-A*69:01; [13]): ≤ 4.70 | pKd (HLA-A*11:01; [13]): 7.26 | pKd (HLA-B*15:01; [13]): ≤ 4.70 | pKd (HLA-B*07:02; [13]): ≤ 4.70 | pKd (HLA-B*73:01; [13]): ≤ 4.70

YRAKVKPWA
pKd (HLA-B*73:01; source organism: Francisella tularensis subsp. tularensis FSC198): 5.35

IEVKFHPIL
pKd (HLA-B*57:01; [14]): ≤ 4.70 | pKd (HLA-B*27:05; [14]): ≤ 4.70 | pKd (HLA-B*18:01; [14]): 8.22 | pKd (HLA-A*03:01; [14]): ≤ 4.70 | pKd (HLA-B*58:01; [14]): ≤ 4.70 | pKd (HLA-B*15:17 [6]; [14]): ≤ 4.70 | pKd (HLA-A*01:01; [14]): ≤ 4.70 | pKd (HLA-A*68:02 [7]; [14]): ≤ 4.70 | pKd (HLA-A*26:01; source organism: Brucella suis 1330): ≤ 4.70 | pKd (HLA-A*02:01 [5]; [14]): ≤ 4.70 | pKd (HLA-A*31:01; [14]): ≤ 4.70 | pKd (HLA-B*40:01; [14]): 7.89 | pKd (HLA-B*48:01; [14]): 6.27 | pKd (HLA-A*69:01; [14]): ≤ 4.70 | pKd (HLA-B*44:02; [14]): ≤ 4.70 | pKd (HLA-A*11:01; [14]): ≤ 4.70 | pKd (HLA-B*15:01; [14]): ≤ 4.70 | pKd (HLA-B*07:02; [14]): ≤ 4.70 | pKd (HLA-B*39:01 [8]): 5.97 | pKd (HLA-B*08:01 [9]): 6.09 | pKd (HLA-B*15:09; source organism: Brucella canis ATCC 23365): 7.06

HEGDIVPLF
pKd (HLA-B*57:01; [15]): ≤ 4.70 | pKd (HLA-B*27:05; [15]): ≤ 4.70 | pKd (HLA-A*03:01; [15]): ≤ 4.70 | pKd (HLA-B*39:01 [1]; [16]): ≤ 4.70 | pKd (HLA-B*58:01; [15]): ≤ 4.70 | pKd (HLA-B*08:01 [4]; [16]): ≤ 4.70 | pKd (HLA-A*01:01; [15]): ≤ 4.70 | pKd (HLA-A*02:01 [5]; [15]): ≤ 4.70 | pKd (HLA-A*31:01; [15]): ≤ 4.70 | pKd (HLA-B*40:01; [15]): 6.51 | pKd (HLA-B*48:01; [15]): ≤ 4.70 | pKd (HLA-A*69:01; [15]): ≤ 4.70 | pKd (HLA-B*44:02; [15]): 5.22 | pKd (HLA-A*11:01; [15]): ≤ 4.70 | pKd (HLA-B*15:01; [15]): 4.82 | pKd (HLA-B*07:02; [15]): ≤ 4.70 | pKd (HLA-B*15:17 [10]): 6.19 | pKd (HLA-A*68:02 [11]): ≤ 4.70 | pKd (HLA-B*35:01): 6.74 | pKd (HLA-B*15:09; source organism: Coxiella burnetii RSA 331): ≤ 4.70

MKYVWPPIM
pKd (HLA-B*57:01; [17]): ≤ 4.70 | pKd (HLA-A*02:12; [17]): ≤ 4.70 | pKd (HLA-B*18:01; [17]): ≤ 4.70 | pKd (HLA-A*03:01; [17]): ≤ 4.70 | pKd (HLA-A*02:03; [17]): ≤ 4.70 | pKd (HLA-A*29:02): ≤ 4.70 | pKd (HLA-A*26:01; [17]): ≤ 4.70 | pKd (HLA-A*02:01 [5]; [17]): ≤ 4.70 | pKd (HLA-B*27:03; [17]): ≤ 4.70 | pKd (HLA-A*02:16): ≤ 4.70 | pKd (HLA-A*69:01; [17]): ≤ 4.70 | pKd (HLA-B*46:01; [17]): ≤ 4.70 | pKd (HLA-B*51:01; [17]): ≤ 4.70 | pKd (HLA-A*02:11; [17]): ≤ 4.70 | pKd (HLA-B*15:01; [17]): ≤ 4.70 | pKd (HLA-A*02:19; [17]): ≤ 4.70

VLLISDPGL
pKd (HLA-B*57:01; [18]): ≤ 4.70 | pKd (HLA-A*02:12; [18]): ≤ 4.70 | pKd (HLA-B*18:01; [18]): ≤ 4.70 | pKd (HLA-A*03:01; [18]): ≤ 4.70 | pKd (HLA-B*39:01 [1]; [18]): ≤ 4.70 | pKd (HLA-A*02:03; [18]): ≤ 4.70 | pKd (HLA-B*15:17 [6]; [18]): 6.60 | pKd (HLA-A*68:02 [7]; [18]): ≤ 4.70 | pKd (HLA-A*26:01; [18]): ≤ 4.70 | pKd (HLA-B*27:03; [18]): ≤ 4.70 | pKd (HLA-A*69:01; [18]): ≤ 4.70 | pKd (HLA-B*46:01; [18]): ≤ 4.70 | pKd (HLA-A*24:03; [18]): ≤ 4.70 | pKd (HLA-A*02:11; [18]): ≤ 4.70 | pKd (HLA-B*15:01; [18]): ≤ 4.70

Source: the Immune Epitope Database (IEDB)
